The supplement of paper PMC10065799, “High-throughput profiling of sequence recognition by tyrosine kinases and SH2 domains using bacterial peptide display” (eLife, 2023)

Experiments:
EPHB1 = EPHB1 (UniProt P54762); test: phosphorylation enrichment, bacterial display (enrichment ratio); higher = better substrate or ligand; peptides without Tyr show the background
EPHB2 = EPHB2 (UniProt P29323); test: as above
c-Src = test: as above
FGFR3 = FGFR3 (UniProt P22607); test: as above
Jak2 = Jak2 (UniProt O60674); test: as above
c-Abl (mouse) = test: as above
AncSZ = test: as above
Fer (mouse) = test: as above
Fes = Fes (UniProt P07332); test: as above
Fyn = Fyn (UniProt P06241); test: as above
MERTK = MERTK (UniProt Q12866); test: as above
Hck = Hck (UniProt P08631); test: as above
FGFR1 = FGFR1 (UniProt P11362); test: as above
Grb2 SH2 = Grb2 SH2 (UniProt P62993); test: SH2 binding enrichment of the phosphorylated peptide, bacterial display (enrichment ratio); higher = better substrate or ligand; peptides without Tyr show the background
SHP2-C SH2 = test: as above
c-Src SH2 = test: as above
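Wherever SH2 binding enrichment of the phosphorylated peptide, bacterial display is given: peptide library displayed on the E. coli surface as eCPX fusions, selected cells deep-sequenced, score is each peptide's frequency after selection divided by its frequency in the input.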
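Wherever phosphorylation enrichment, bacterial display is given: 11-residue human phosphosite peptides and single-mutation variants displayed on the E. coli surface, counted by deep sequencing, each peptide's frequency after selection divided by its frequency in the unselected input library; frequency after pTyr selection over input frequency; kinase dosed for 20-30% of maximal phosphorylation in three min.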

Grb2 SH2, sequence (P62993 whole entry, looked up): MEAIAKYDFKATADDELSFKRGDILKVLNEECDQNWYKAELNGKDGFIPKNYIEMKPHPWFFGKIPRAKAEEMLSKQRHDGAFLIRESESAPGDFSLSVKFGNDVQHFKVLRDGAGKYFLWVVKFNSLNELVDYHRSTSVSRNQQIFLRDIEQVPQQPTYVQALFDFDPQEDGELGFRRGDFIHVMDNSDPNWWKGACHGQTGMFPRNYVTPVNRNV
EPHB1, sequence (P54762 whole entry, looked up): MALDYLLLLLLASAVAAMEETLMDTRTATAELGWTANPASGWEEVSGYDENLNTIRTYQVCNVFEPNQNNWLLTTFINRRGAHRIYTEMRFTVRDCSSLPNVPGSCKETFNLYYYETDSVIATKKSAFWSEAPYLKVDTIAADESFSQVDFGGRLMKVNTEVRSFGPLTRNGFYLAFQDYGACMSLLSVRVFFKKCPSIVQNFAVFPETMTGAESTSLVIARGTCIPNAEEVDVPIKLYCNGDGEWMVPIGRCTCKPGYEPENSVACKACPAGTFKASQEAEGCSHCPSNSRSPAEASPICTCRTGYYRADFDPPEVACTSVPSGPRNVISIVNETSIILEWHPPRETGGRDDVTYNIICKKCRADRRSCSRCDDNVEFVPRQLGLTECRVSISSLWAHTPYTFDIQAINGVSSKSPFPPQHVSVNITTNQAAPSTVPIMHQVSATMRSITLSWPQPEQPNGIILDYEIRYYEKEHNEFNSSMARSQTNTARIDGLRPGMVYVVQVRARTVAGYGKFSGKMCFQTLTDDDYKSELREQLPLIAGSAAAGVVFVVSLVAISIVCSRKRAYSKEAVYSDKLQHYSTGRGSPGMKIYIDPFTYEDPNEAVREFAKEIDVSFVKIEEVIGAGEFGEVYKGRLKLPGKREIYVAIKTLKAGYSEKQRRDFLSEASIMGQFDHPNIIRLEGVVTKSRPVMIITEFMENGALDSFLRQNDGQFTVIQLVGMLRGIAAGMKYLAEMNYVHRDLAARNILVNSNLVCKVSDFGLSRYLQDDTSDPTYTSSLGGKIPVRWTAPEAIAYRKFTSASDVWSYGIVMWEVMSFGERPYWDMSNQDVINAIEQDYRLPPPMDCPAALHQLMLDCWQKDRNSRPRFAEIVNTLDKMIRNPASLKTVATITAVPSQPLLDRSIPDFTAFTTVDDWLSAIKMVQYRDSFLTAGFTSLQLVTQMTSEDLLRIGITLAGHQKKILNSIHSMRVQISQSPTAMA
Hck, sequence (P08631 whole entry, looked up): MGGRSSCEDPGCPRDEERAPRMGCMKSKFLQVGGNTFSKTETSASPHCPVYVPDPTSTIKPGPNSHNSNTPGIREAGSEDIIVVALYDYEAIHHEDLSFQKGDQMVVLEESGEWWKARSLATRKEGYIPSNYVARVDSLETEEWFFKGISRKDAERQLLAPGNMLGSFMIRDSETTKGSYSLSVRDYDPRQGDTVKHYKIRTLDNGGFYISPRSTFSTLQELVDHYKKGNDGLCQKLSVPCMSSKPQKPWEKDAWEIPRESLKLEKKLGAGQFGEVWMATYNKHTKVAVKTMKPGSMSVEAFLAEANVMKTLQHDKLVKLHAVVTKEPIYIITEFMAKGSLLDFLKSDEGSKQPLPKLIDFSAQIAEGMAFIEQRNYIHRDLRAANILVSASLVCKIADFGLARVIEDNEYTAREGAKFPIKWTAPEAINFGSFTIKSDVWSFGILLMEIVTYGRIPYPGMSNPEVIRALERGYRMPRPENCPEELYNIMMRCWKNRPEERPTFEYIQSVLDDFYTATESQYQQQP
FGFR1, sequence (P11362 whole entry, looked up): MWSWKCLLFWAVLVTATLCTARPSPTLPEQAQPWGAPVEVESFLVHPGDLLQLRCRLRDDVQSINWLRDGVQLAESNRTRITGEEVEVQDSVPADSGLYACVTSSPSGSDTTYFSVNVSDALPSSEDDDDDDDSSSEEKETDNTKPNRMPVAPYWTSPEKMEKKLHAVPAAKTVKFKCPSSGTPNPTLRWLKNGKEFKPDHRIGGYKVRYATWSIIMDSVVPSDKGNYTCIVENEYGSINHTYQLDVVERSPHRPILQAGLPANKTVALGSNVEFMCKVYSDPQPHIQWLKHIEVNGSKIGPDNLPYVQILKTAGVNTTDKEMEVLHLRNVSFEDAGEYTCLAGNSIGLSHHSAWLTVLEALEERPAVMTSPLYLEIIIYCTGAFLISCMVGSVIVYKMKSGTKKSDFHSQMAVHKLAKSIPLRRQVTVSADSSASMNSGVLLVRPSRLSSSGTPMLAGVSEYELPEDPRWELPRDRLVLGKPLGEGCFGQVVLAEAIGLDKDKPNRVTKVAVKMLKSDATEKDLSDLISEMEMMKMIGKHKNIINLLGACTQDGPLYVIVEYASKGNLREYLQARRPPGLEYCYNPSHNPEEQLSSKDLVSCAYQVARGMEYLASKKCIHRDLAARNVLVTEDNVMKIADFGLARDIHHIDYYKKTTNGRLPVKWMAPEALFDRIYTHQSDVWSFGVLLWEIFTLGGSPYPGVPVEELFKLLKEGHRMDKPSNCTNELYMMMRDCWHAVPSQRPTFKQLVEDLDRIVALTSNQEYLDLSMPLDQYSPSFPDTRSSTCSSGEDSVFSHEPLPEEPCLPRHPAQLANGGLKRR
Jak2, sequence (O60674 whole entry, looked up): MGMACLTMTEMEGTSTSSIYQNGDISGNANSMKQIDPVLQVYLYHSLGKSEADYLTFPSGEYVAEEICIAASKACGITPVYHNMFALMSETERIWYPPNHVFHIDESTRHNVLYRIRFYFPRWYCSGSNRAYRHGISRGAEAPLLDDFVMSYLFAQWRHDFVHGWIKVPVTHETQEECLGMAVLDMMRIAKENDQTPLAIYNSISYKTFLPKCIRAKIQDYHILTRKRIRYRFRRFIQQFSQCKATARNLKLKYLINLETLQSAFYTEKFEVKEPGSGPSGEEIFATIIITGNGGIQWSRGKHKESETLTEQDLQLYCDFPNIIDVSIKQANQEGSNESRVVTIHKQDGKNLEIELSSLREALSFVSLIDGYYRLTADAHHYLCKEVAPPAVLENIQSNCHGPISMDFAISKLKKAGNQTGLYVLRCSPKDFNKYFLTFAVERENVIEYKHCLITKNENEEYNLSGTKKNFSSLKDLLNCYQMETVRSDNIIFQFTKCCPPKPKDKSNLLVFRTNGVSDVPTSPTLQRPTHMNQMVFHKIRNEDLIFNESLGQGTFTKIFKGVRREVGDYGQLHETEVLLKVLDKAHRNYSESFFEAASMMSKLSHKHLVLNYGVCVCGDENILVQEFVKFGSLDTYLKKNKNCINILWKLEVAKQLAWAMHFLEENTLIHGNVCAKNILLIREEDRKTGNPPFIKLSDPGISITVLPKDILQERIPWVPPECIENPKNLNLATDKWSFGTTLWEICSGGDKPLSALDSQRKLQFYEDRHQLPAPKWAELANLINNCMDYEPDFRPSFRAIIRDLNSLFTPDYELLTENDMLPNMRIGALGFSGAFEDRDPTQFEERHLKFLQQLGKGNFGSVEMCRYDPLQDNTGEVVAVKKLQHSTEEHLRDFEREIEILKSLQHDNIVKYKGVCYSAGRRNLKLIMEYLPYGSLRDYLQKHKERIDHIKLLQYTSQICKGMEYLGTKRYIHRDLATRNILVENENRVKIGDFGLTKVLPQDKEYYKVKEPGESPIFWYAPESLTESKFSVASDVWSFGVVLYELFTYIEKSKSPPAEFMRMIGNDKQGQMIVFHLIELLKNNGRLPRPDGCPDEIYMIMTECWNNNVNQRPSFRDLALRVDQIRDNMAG
Fes, sequence (P07332 whole entry, looked up): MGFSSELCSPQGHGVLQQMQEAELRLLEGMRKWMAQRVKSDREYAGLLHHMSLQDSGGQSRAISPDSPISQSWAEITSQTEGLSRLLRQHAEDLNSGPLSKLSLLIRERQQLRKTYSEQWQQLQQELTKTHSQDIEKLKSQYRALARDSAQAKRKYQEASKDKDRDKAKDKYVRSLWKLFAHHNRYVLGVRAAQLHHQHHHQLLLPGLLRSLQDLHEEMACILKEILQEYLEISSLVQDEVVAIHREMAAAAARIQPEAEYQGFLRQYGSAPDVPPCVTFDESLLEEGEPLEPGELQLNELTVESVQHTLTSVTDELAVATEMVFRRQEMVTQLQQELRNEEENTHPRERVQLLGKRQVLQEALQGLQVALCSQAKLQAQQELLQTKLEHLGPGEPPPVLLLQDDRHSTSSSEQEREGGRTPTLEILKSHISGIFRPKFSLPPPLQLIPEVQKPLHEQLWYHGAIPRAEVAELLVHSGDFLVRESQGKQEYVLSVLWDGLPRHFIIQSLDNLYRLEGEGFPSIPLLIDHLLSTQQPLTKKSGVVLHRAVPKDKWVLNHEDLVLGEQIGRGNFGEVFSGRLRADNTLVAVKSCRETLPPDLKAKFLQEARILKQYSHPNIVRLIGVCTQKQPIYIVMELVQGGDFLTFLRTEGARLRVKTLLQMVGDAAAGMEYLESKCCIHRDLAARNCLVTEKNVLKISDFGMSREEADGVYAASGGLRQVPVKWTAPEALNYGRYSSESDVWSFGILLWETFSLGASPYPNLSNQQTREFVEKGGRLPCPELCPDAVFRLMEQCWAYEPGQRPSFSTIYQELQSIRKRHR
Fyn, sequence (P06241 whole entry, looked up): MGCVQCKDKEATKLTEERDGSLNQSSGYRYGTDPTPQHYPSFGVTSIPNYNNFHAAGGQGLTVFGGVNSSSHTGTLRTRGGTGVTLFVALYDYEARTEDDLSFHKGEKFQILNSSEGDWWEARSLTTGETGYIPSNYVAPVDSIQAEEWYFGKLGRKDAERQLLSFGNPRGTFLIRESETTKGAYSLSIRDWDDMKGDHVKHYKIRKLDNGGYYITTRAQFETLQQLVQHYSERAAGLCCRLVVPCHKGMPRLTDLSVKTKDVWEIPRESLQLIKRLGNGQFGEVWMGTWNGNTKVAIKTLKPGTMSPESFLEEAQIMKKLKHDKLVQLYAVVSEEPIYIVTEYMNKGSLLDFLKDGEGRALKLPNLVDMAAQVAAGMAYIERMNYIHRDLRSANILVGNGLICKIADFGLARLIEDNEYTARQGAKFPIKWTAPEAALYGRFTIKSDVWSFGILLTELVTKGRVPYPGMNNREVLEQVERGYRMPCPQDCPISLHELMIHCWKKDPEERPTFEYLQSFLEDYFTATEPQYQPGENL

| Sequence | phosphorylation enrichment (EPHB1) | phosphorylation enrichment (EPHB2) | phosphorylation enrichment (c-Src) | phosphorylation enrichment (FGFR3) | phosphorylation enrichment (Jak2) | phosphorylation enrichment (c-Abl (mouse)) | phosphorylation enrichment (AncSZ) | phosphorylation enrichment (Fer (mouse)) | phosphorylation enrichment (Fes) | phosphorylation enrichment (Fyn) | phosphorylation enrichment (MERTK) | phosphorylation enrichment (Hck) | phosphorylation enrichment (FGFR1) | SH2 binding enrichment (Grb2 SH2) | SH2 binding enrichment (SHP2-C SH2) | SH2 binding enrichment (c-Src SH2) |
| --- | --- | --- | --- | --- | --- | --- | --- | --- | --- | --- | --- | --- | --- | --- | --- | --- |
| LADKPYTFEDY [FXN_Y118] | 0.736 | 1.04 | 6.91 | 1.14 | 1.92 | 1.55 | 2.03 | 0.832 | 1.74 | 3.63 | 2.31 | 0.945 | 0.955 | 0.758 | 0.588 | 0.446 |
| LARDMHDKEYY [MET_Y1230_Y1230H] | 0.469 | 0.507 | 0.425 | 0.589 | 0.628 | 0.395 | 0.763 | 0.426 | 0.678 | 0.445 | 0.404 | 0.385 | 0.46 | 0.625 | 0.962 | 0.395 |
| LDFPEYNGVDR [CASQ1_Y43_D44N] | 1.09 | 1.04 | 2.17 | 1.61 | 3.51 | 1.95 | 2.84 | 1 | 3.29 | 1.43 | 2.17 | 1.16 | 0.986 | 0.541 | 0.646 | 0.975 |
| LENSTYQFIHV [CRB1_Y760_R764H_YF] | 9.73 | 2.92 | 4.21 | 4.82 | 1.19 | 1.56 | 1.77 | 24.8 | 2.22 | 3.24 | 10 | 8.87 | 7.91 | 0.94 | 0.652 | 0.456 |
| LEQQKYTVTVD [IKBKB_Y199] | 0.566 | 0.746 | 0.593 | 1.06 | 0.954 | 0.634 | 1.21 | 0.674 | 1.98 | 0.706 | 0.71 | 0.726 | 0.647 | 0.804 | 0.616 | 0.567 |
| LERYIYNREEF [HLA-DPB1_Y59] | 0.756 | 1.22 | 2.63 | 1.18 | 0.874 | 0.757 | 1.05 | 0.587 | 1.24 | 1.26 | 0.629 | 1.56 | 0.564 | 0.956 | 0.698 | 0.634 |
| LFFFSYLLKNH [PTEN_Y180_V175L_YF] | 0.443 | 0.976 | 1 | 0.671 | 2.28 | 1.66 | 1.39 | 0.672 | 1.98 | 0.346 | 0.584 | 0.705 | 0.577 | 0.901 | 0.696 | 0.769 |
| LFLASYCIGGG [UBD_Y161_C160S] | 0.655 | 0.788 | 0.495 | 1.04 | 1.21 | 0.886 | 1.22 | 0.671 | 1.63 | 0.416 | 0.537 | 0.533 | 1.06 | 0.847 | 0.815 | 0.521 |
| LFNQDYPIHSV [GATM_Y227_YF] | 1.46 | 0.787 | 0.81 | 2 | 0.707 | 0.984 | 2.31 | 1.24 | 2.09 | 1.01 | 0.796 | 1.07 | 3.19 | 1.21 | 0.725 | 0.432 |
| LHRAHYDLRHT [AHSG_Y314] | 0.668 | 0.78 | 0.556 | 1.1 | 0.725 | 0.908 | 0.621 | 0.8 | 1.11 | 0.617 | 0.418 | 0.876 | 0.707 | 1.83 | 1.6 | 1.19 |
| LHSEAYLKFNE [PBRM1_Y1610_I1614N_YF] | 0.438 | 0.651 | 0.707 | 0.945 | 1.06 | 0.922 | 1.53 | 0.493 | 1.31 | 1.05 | 0.737 | 0.488 | 0.72 | 1.34 | 1 | 0.539 |
| LIDGYYRLTAD [JAK2_Y373] | 1.88 | 2.08 | 0.899 | 5.24 | 10.4 | 1 | 2.46 | 1.54 | 2.59 | 1.71 | 0.961 | 1.87 | 11.5 | 0.72 | 9.03 | 4.65 |
| LIDSSYLTPTA [GREB1L_Y1063_R1066P] | 0.569 | 0.498 | 0.421 | 0.825 | 0.8 | 0.871 | 0.919 | 0.423 | 1.15 | 0.409 | 0.511 | 0.684 | 0.596 | 1.2 | 0.595 | 0.717 |
| LIFTNYEVGKD [GSTP1_Y112_A114V_YF] | 1.58 | 1.78 | 0.825 | 1.46 | 1.94 | 1.3 | 2.14 | 1.17 | 2.21 | 1.18 | 0.983 | 1.1 | 1.17 | 0.887 | 0.784 | 0.739 |
| LIGRGYDDPEV [HSPA9_Y128_R127G] | 0.695 | 0.802 | 0.567 | 0.894 | 0.868 | 0.756 | 1.54 | 0.669 | 1.88 | 0.975 | 0.602 | 0.931 | 0.828 | 0.772 | 0.635 | 2.39 |
| LIGTPYWMAPE [PAK5_Y608_V604I] | 1.4 | 1 | 2.6 | 3.65 | 1.17 | 0.987 | 1.74 | 0.917 | 1.51 | 0.825 | 1.32 | 1 | 4.64 | 1.23 | 3.03 | 0.882 |
| LIHLHYIRKDF [BBS4_Y43_YF] | 1.17 | 1.01 | 0.527 | 1.22 | 0.787 | 0.612 | 1.51 | 0.984 | 1.18 | 0.871 | 0.471 | 0.637 | 0.937 | 2.06 | 2.75 | 1.6 |

| Sequence | phosphorylation enrichment (EPHB1) | phosphorylation enrichment (EPHB2) | phosphorylation enrichment (c-Src) | phosphorylation enrichment (FGFR3) | phosphorylation enrichment (Jak2) | phosphorylation enrichment (c-Abl (mouse)) | phosphorylation enrichment (AncSZ) | phosphorylation enrichment (Fer (mouse)) | phosphorylation enrichment (Fes) | phosphorylation enrichment (Fyn) | phosphorylation enrichment (MERTK) | phosphorylation enrichment (Hck) | phosphorylation enrichment (FGFR1) | SH2 binding enrichment (Grb2 SH2) | SH2 binding enrichment (SHP2-C SH2) | SH2 binding enrichment (c-Src SH2) |
| --- | --- | --- | --- | --- | --- | --- | --- | --- | --- | --- | --- | --- | --- | --- | --- | --- |
| LIHTKCPQLLP [AHCY_Y143_Y143C] | 0.516 | 0.607 | 0.433 | 0.631 | 0.654 | 0.604 | 0.693 | 0.46 | 0.936 | 0.438 | 0.476 | 0.509 | 0.509 | 0.941 | 0.762 | 0.714 |
| LIQRNYKLTAQ [ALPK2_Y1975_A1978T] | 0.479 | 0.604 | 0.706 | 0.511 | 1.24 | 1.2 | 0.86 | 0.393 | 1.12 | 0.462 | 0.567 | 0.507 | 0.465 | 1.24 | 0.952 | 0.532 |
| LKALHYMAQTS [SACS_Y3367_V3369A] | 0.759 | 0.634 | 0.587 | 0.887 | 0.751 | 0.907 | 0.89 | 0.746 | 0.94 | 0.705 | 0.749 | 0.623 | 0.765 | 0.861 | 0.707 | 0.609 |
| LKFAIYFEARE [LAMA2_Y1258_YF] | 1.78 | 0.983 | 0.345 | 2.05 | 1.1 | 1.06 | 1.45 | 0.884 | 2.6 | 1.29 | 0.845 | 0.736 | 1.41 | 1.08 | 0.756 | 0.352 |
| LKGQVYILGRE [ASS1_Y359] | 0.522 | 0.949 | 0.438 | 1.07 | 1.17 | 1.47 | 1.09 | 0.756 | 1.26 | 0.679 | 0.56 | 0.369 | 0.406 | 0.836 | 0.444 | 0.31 |
| LKVDVYRRSHK [FUT3_Y222_G223R] | 0.656 | 0.496 | 0.753 | 0.85 | 1.78 | 0.908 | 1.11 | 0.485 | 1.46 | 0.44 | 0.546 | 0.577 | 0.611 | 1.08 | 0.931 | 0.677 |
| LKYAIYFEVRE [LAMA2_Y1258_A1261V] | 1.67 | 1.23 | 1.45 | 1.39 | 2.44 | 2.14 | 2.08 | 0.929 | 2.57 | 1.17 | 0.954 | 0.827 | 1.09 | 0.399 | 0.573 | 0.544 |
| LLASGYDSPIN [ABLIM1_Y638_R637G] | 0.764 | 0.825 | 0.556 | 1.09 | 0.737 | 1.03 | 1.33 | 0.423 | 1.28 | 0.529 | 0.52 | 0.783 | 0.859 | 0.615 | 0.653 | 1.84 |
| LLASRYDSPIN [ABLIM1_Y638] | 1.58 | 0.929 | 0.96 | 0.636 | 1.59 | 1.13 | 1.32 | 0.607 | 1.65 | 1.18 | 1.09 | 0.923 | 1.12 | 0.704 | 0.991 | 2.63 |
| LLINKYGLSAH [SCP2_Y151] | 0.71 | 0.669 | 0.428 | 0.708 | 0.838 | 0.559 | 0.877 | 0.619 | 0.99 | 0.443 | 0.372 | 0.428 | 0.488 | 0.869 | 0.821 | 0.349 |
| LLKNMYLMLDN [STAT1_Y203_K201N] | 1.34 | 1.02 | 0.933 | 1.65 | 2.77 | 1.7 | 2.85 | 1.02 | 2.63 | 0.593 | 0.745 | 0.921 | 0.868 | 0.975 | 3.55 | 0.945 |
| LLREWYLQDPY [SIX3_Y225] | 0.947 | 0.928 | 1.11 | 1.12 | 1.11 | 1.11 | 1.52 | 0.938 | 1.52 | 1.08 | 0.606 | 0.85 | 0.867 | 1.43 | 1.28 | 0.76 |
| LLVVLNKYRCY [PSEN1_Y154_Y154N] | 1.03 | 0.875 | 0.577 | 1.39 | 1.68 | 0.96 | 1.34 | 0.53 | 1.6 | 0.631 | 0.456 | 0.448 | 0.73 | 0.952 | 0.79 | 0.536 |
| LNCIFYKDQTG [RS1_Y166_W163C_YF] | 1.1 | 1.34 | 1.31 | 1.06 | 2.06 | 1.24 | 1.56 | 1.44 | 2.08 | 0.552 | 0.798 | 0.774 | 0.563 | 0.75 | 0.659 | 0.502 |
| LNEAVYTKMMT [G6PD_Y401_P396L] | 1.76 | 1.8 | 5.76 | 1.29 | 1.15 | 0.881 | 1.9 | 16.1 | 2.05 | 5.35 | 3.19 | 6.11 | 1.38 | 0.659 | 0.414 | 1.61 |
| LNFNEYFRDLN [HPRT1_Y198_D194N_YF] | 1.23 | 1.01 | 1.15 | 0.803 | 2.25 | 2.15 | 1.78 | 1.03 | 2.1 | 0.866 | 0.972 | 0.99 | 1.18 | 1.11 | 0.955 | 0.608 |
